Data taken from patent US20050031631A1.

B1: PjB mutant of Par j 1.0102 (Cys50->Ser and Cys52->Ser) (protein, not shown: small tags and cut ends)
chain: QETCGTMVRALMPCLPFVQGKEKEPSKGCCSGAKRLDGETKTGPQRVHASESIQTAMKTYSDIDGKLVSEVPKHCGIVDSKLPPIDVNMDCKTVGVVPRQPQLPVSLRHGPVTGPSDPAHKARLERPQIRVPPPAPEKA
B2: PjA mutant of Par j 1.0102 (Cys29->Ser and Cys30->Ser) (protein, not shown: small tags and cut ends)
chain: QETCGTMVRALMPCLPFVQGKEKEPSKGSSSGAKRLDGETKTGPQRVHACECIQTAMKTYSDIDGKLVSEVPKHCGIVDSKLPPIDVNMDCKTVGVVPRQPQLPVSLRHGPVTGPSDPAHKARLERPQIRVPPPAPEKA
B3: recombinant Par j 1.0102, major allergen of Parietaria judaica (wild type) (protein, not shown: small tags and cut ends)
chain: QETCGTMVRALMPCLPFVQGKEKEPSKGCCSGAKRLDGETKTGPQRVHACECIQTAMKTYSDIDGKLVSEVPKHCGIVDSKLPPIDVNMDCKTVGVVPRQPQLPVSLRHGPVTGPSDPAHKARLERPQIRVPPPAPEKA
B4: PjD mutant of Par j 1.0102 (Cys29->Ser, Cys30->Ser, Cys50->Ser and Cys52->Ser) (protein, not shown: small tags and cut ends)
chain: QETCGTMVRALMPCLPFVQGKEKEPSKGSSSGAKRLDGETKTGPQRVHASESIQTAMKTYSDIDGKLVSEVPKHCGIVDSKLPPIDVNMDCKTVGVVPRQPQLPVSLRHGPVTGPSDPAHKARLERPQIRVPPPAPEKA
B5: PjC mutant of Par j 1.0102 (Cys4->Ser, Cys29->Ser and Cys30->Ser) (protein, not shown: small tags and cut ends)
chain: QETSGTMVRALMPCLPFVQGKEKEPSKGSSSGAKRLDGETKTGPQRVHACECIQTAMKTYSDIDGKLVSEVPKHCGIVDSKLPPIDVNMDCKTVGVVPRQPQLPVSLRHGPVTGPSDPAHKARLERPQIRVPPPAPEKA

How the values were obtained:
[1] = biological target: human IgE of ten monosensitive Pj allergic patients (single sera / the patients themselves) (human); assay: cell-based or functional assay
[2] = biological target: human IgE from a pool of sera (n=10) of Pj monosensitive allergic patients (human); assay: ELISA inhibition: pool of sera (n=10, 1:5) preincubated with the protein (0.25-20 ug/ml), then on wells coated with rParj1; bound IgE detected

Binder	skin prick test, patients with Type I immediate hypersensitivity (out of 10 patients) [1]	% inhibition [2]	skin prick test, patients with a positive reaction (out of 10 patients) [1]
B1	9	85%	
B2		16%	3
B3		95%	
B4		15%	
B5		14%	
